Measured values: PMC6533203

Tests used:
[1] = target: CH01 inferred germline-reverted (iGL) antibody; test: BLI (Octet); settings: parent: est. 0.12; read off a plot
CAP256 UCA = test: BLI (Octet); settings: parent: est. 0.19; read off a plot
[2] = target: MT145K SOSIP.664 trimer (SIVcpzPtt (chimpanzee SIV), isolate MT145); test: cryo-EM structure; unliganded MT145K trimer, global resolution ~4.1 Å
[3] = pseudovirus neutralization, TZM-bl cells, ID50; settings: glycan lost; control: MT145K virus

MT145K SOSIP.664 trimer R166S
response [1]: 0.1 nm

MT145K SOSIP.664 trimer N160K
response (CAP256 UCA): 0.015 nm | response [1]: 0.04 nm

MT145K SOSIP.664 trimer K171E
response [1]: 0.015 nm

MT145K SOSIP.664 trimer (complex)
stoichiometry N [2]: 3

B1: MT145K SOSIP.664 Env trimer (also MT145K Env pseudovirus): MT145K N160A (protein)
parent chain: MKVMGMKYYWWRNSCRSISIKLILIGWIASCFGEENWWVTVYYGVPVWREAKTTLFCASDAKSYSTEAHNIWATQACVPTDPTPQEVLLPNVTEEFNMWENYMVDQMQEDIISLWEQSLKPCVKLTPLCVTLTCNNPTNTSCTNSTDDRLGDMRNCSFNVTTELRDKKRQVYSLFYVEDITAIGNNSTYRLINCNTTAITQACPKTSFEPIPIHYCAPAGFALLKCNDIDYKGNETCKNVSTVHCTHGIKPVATTQLILNGSTADNQTVARIDPSENLAIIQLKDPVKITCRRPGNNTRGQIQIGPAMTFYNIENVVGDTRKAYCEINGTQWAKALNETKEVLRNILRKNISFMVPSGGDPEVTNHHFNCGGEFFYCNTSEIINITKINKTENMTIIPCRIRQIVNSWMRVGKGIFAPPIRGNITCTSNITGMLLEIHKNREDQGEDQDQNNTYVCLTGGNMKDIWRSELYKYKIVEIQPLGVAPTKSRRYAVEKQHHREKRALGLGALFLGFLGAAGSTMGAASVVLTVQARQLLTGIVQQQNNLLRAIEAQQHLLQLSVWGIKQLQARVLAVERYLRDQQLLGLWGCTGKTICPTAVRWNKTWGNISDYQVIWNNYTWQQWDREVNNYTGLIYTLLEEANTQQEKNEKELLELDSWANLWSWFDITNWLWYIKMFLIVVGGIIGLRICFAIGSLINRVRKGYSPLSLQTLIPANQGPDGLGETEKGGGENVRGRSIRLVSGFLPLVWEDLRNLLSFLYHQLRDCASLIWRLLEILGQYSLRGVQQIGTLLHQLRGTLQYWTTEIKNSAISLLDTTAIAVGEGTDRILEAITRLGRGILHIPRRIRQGLERALL
other: neutralisation sensitivity [3]: decreases
